Results published in paper PMC3315474.

Test system: HSF-3xFLAG (Heat Shock Factor) (Drosophila (species not stated))
Test: EMSA
Conditions: Kd per HSF trimer, 20 mM HEPES pH 7.9, 100 mM NaCl, 3 mM MgCl2, 1 mM EDTA, 4 mM DTT, 10% glycerol, 0.1% NP-40, 300 ug/ml BSA, 10 ul, 200 amol probe, 30 min, room temperature

Substance	Kd	other results
HSE chr2L:5009892 (42.6 pM)	–	Kd (Methods print 42.7 pM): 0.0426 nM
HSE chrX:3380775 (224 pM)	0.224 nM	–
HSE chr3L:4073542 (97.5 pM)	0.0975 nM	–
HSE chr3L:13470978 (221 pM)	–	Kd (HSF up to 1.5 nM monomer): 0.221 nM
HSE chr2R:3529792 (308 pM)	0.308 nM	–
